Source: US20100310591A1 (published 2010)
Non-standard residues stand in square brackets, D forms with d. Ava = NCCCCC(=O)O

Each binder was assayed against murine class II MHC allele E^k on CH27 B cell lymphoma antigen presenting cells (murine) (assay: cell-based or functional assay).

Row | Binder | T cell proliferative response (HT-2 [3H]TdR uptake) at 0.01 nM | T cell proliferative response (HT-2 [3H]TdR uptake) at 0.05 nM | T cell proliferative response (HT-2 [3H]TdR uptake) at 0.18 nM | T cell proliferative response (HT-2 [3H]TdR uptake) at 0.73 nM | T cell proliferative response (HT-2 [3H]TdR uptake) at 3 nM | T cell proliferative response (HT-2 [3H]TdR uptake) at 12 nM | T cell proliferative response (HT-2 [3H]TdR uptake) at 47 nM | T cell proliferative response (HT-2 [3H]TdR uptake) at 188 nM | T cell proliferative response (HT-2 [3H]TdR uptake) at 750 nM | T cell proliferative response (HT-2 [3H]TdR uptake) at 3000 nM
1 | Ac-IAYLKQATAK-NH2 [Hybrid 1, Ac-IAYLKQATAK-NH2 (antigenic epitope PGCC 95-104 without Ii-Key)] | 0 thousands of cpm | 0 thousands of cpm | 0 thousands of cpm | 4 thousands of cpm | 0.4 thousands of cpm | 10.9 thousands of cpm | 29.5 thousands of cpm | 32.4 thousands of cpm | 27.8 thousands of cpm | 25.2 thousands of cpm
2 | Ac-LRMK[Ava]IAYLKQATAK-NH2 (SMILES CC[C@H](C)[C@H](NC(=O)CCCCNC(=O)[C@H](CCCCN)NC(=O)[C@H](CCSC)NC(=O)[C@H](CCCNC(=N)N)NC(=O)[C@H](CC(C)C)NC(C)=O)C(=O)N[C@@H](C)C(=O)N[C@@H](Cc1ccc(O)cc1)C(=O)N[C@@H](CC(C)C)C(=O)N[C@@H](CCCCN)C(=O)N[C@@H](CCC(N)=O)C(=O)N[C@@H](C)C(=O)N[C@H](C(=O)N[C@@H](C)C(=O)N[C@@H](CCCCN)C(N)=O)[C@@H](C)O) [Hybrid 2, Ac-LRMK-ava-IAYLKQATAK-NH2] | 3.4 thousands of cpm | 19.8 thousands of cpm | 31.2 thousands of cpm | 38.8 thousands of cpm | 30.1 thousands of cpm | 21.9 thousands of cpm | 20.8 thousands of cpm | 27.2 thousands of cpm | 23.9 thousands of cpm | 25.1 thousands of cpm
3 | Ac-LRMK[Ava][Ava]IAYLKQATAK-NH2 (SMILES CC[C@H](C)[C@H](NC(=O)CCCCNC(=O)CCCCNC(=O)[C@H](CCCCN)NC(=O)[C@H](CCSC)NC(=O)[C@H](CCCNC(=N)N)NC(=O)[C@H](CC(C)C)NC(C)=O)C(=O)N[C@@H](C)C(=O)N[C@@H](Cc1ccc(O)cc1)C(=O)N[C@@H](CC(C)C)C(=O)N[C@@H](CCCCN)C(=O)N[C@@H](CCC(N)=O)C(=O)N[C@@H](C)C(=O)N[C@H](C(=O)N[C@@H](C)C(=O)N[C@@H](CCCCN)C(N)=O)[C@@H](C)O) [Hybrid 3, Ac-LRMK-ava-ava-IAYLKQATAK-NH2] | 0.6 thousands of cpm | 5.3 thousands of cpm | 21.6 thousands of cpm | 22.3 thousands of cpm | 27.9 thousands of cpm | 29.5 thousands of cpm | 26.2 thousands of cpm | 26.2 thousands of cpm | 31.7 thousands of cpm | 31.9 thousands of cpm
4 | Ac-LRMKLPKSAKPIAYLKQATAK-NH2 [Hybrid 5, Ac-LRMKLPKSAKPIAYLKQATAK-NH2] | 14.3 thousands of cpm | 21.3 thousands of cpm | 36.7 thousands of cpm | 30.1 thousands of cpm | 31.4 thousands of cpm | 44.6 thousands of cpm | 26.2 thousands of cpm | 29.1 thousands of cpm | 27.5 thousands of cpm | 27.3 thousands of cpm
5 | Ac-LRMKLPKSAKPVSKIAYLKQATAK-NH2 [Hybrid 6, Ac-LRMKLPKSAKPVSKIAYLKQATAK-NH2] | 2.9 thousands of cpm | 2.4 thousands of cpm | 11.9 thousands of cpm | 28.7 thousands of cpm | 31.4 thousands of cpm | 39.2 thousands of cpm | 25.3 thousands of cpm | 26.9 thousands of cpm | 23.4 thousands of cpm | 21.5 thousands of cpm
6 | Ac-LRMKLPKSIAYLKQATAK-NH2 [Hybrid 4, Ac-LRMKLPKSIAYLKQATAK-NH2] | 2.5 thousands of cpm | 5.8 thousands of cpm | 9.1 thousands of cpm | 19.2 thousands of cpm | 19 thousands of cpm | 23.1 thousands of cpm | 19.5 thousands of cpm | 20.8 thousands of cpm | 23.3 thousands of cpm | 25.2 thousands of cpm
